This note sets out measurements from patent US20240132624A1 (Ablynx, published 2024).

In test [1] the target is T1, cyno FcRn/b2M (cyno, UniProt Q8SPV9 24-297; Q8SPW0 21-119, biotinylated).
T1 construct: bought recombinant biotinylated protein (Immunitrack ITF05 or ACRO FCM-C82W5); also called cFcRn; cFcRn/cb2M
Put plainly: SPR pH 7.4.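 Note: surface plasmon resonance kinetics, periplasmic extracts diluted 1:10 flowed over immobilized target at 25 °C, 120 s association then 600–3600 s dissociation, buffer with 150 mM NaCl.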
Experimental: (§1) All kinetic measurements have been performed on ProteOn XPR36 (BioRad Laboratories, Inc.), MASS-2 (Sierra sensors, Gmbh) or SPR-32 (Bruker Corporation). […] The phytip purified periplasmic extracts were diluted 1:10 in running buffer (CPA+150 mM NaCl+0.005% Tw20 at pH 5.5, pH 6.0 or pH 7.4) and injected over the ligand surfaces (association: 120 s at 45 μL/min; dissociation: 600s-3600 s at 45 μL/min). Experiments were carried out at 25° C.

Test [2] concerns the target T2, human FcRn/b2M (human, UniProt P61769 21-119, biotinylated).
T2 construct: bought recombinant biotinylated protein (ACRO FCM-H82W4 or Immunitrack ITF01); also called hFcRn; hFcRn/hb2M
Kind of test: SPR pH 7.4.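 Note: surface plasmon resonance kinetics, periplasmic extracts diluted 1:10 flowed over immobilized target at 25 °C, 120 s association then 600–3600 s dissociation, buffer with 150 mM NaCl.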
Experimental: as §1

Test [3] addresses T1, cyno FcRn/b2M. Kind of test: SPR pH 6.0.
Experimental: as §1
Test [4] addresses T2, human FcRn/b2M. Kind of test: SPR pH 6.0.
Experimental: as §1
Test [5] has as its target T1, cyno FcRn/b2M. Put plainly: SPR off-rate; pH 7.4 vs pH 6.0.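 Note: surface plasmon resonance with diluted periplasmic extracts flowed over ligand surfaces, 120 s association and 600–3600 s dissociation at 25 °C, running buffer containing 150 mM NaCl.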
Experimental: as §1
In test [6] the target is T2, human FcRn/b2M. Kind of test: SPR off-rate; pH 7.4 vs pH 6.0.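 Note: surface plasmon resonance with diluted periplasmic extracts flowed over ligand surfaces, 120 s association and 600–3600 s dissociation at 25 °C, running buffer containing 150 mM NaCl.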
Experimental: as §1
The target of test [7] is T2, human FcRn/b2M. Kind of test: SPR pH 6.0. This is another data set of the same source.

T2 sequence (chain, as listed by the source limits assumed, chain 1 of 2): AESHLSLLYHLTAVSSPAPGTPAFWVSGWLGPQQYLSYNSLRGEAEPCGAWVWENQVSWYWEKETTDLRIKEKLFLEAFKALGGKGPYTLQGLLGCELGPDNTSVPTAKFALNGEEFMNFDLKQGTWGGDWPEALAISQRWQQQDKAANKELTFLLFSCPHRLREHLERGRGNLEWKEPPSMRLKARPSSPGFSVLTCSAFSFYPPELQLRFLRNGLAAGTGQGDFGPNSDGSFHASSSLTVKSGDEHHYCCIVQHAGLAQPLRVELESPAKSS
T2 sequence (P61769 21-119 limits assumed, chain 2 of 2): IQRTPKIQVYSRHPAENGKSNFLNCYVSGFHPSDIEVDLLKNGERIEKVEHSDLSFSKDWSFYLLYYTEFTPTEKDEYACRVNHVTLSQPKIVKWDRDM
T1 sequence (Q8SPV9 24-297 limits assumed, chain 1 of 2): as the sequence (chain, as listed by the source limits assumed, chain 1 of 2) above, with N39D, E44Q, G99S, S189G, S190N, L217M, S269T counted along it
T1 sequence (Q8SPW0 21-119 limits assumed, chain 2 of 2): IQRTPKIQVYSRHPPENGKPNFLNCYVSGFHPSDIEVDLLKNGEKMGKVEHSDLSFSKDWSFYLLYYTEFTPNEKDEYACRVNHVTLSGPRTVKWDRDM

B1: T0263018B11 Y32Q (VHH, name in Kabat numbering)
VHH: EVQLVESGGGVVQPGGSLRLSCAASGFTFSSQAMYWVRQAPGKGLEWVSAISSGGGSTDYADSVKGRFTISRDNSKNTLYLQMNSLRPEDTALYYCAADTLYTSLTWYSYWGQGTLVTVSS
notes: FLAG3-His6 tagged
B1: the koff with cyno FcRn/b2M [1] was 0.099 s⁻¹; with human FcRn/b2M [2], 0.14 s⁻¹; in the test with cyno FcRn/b2M [3], 0.0013 s⁻¹; in the test with human FcRn/b2M [4] it was 0.0023 s⁻¹. In addition, the entries for the “kd ratio pH 7.4/6.0” value with cyno FcRn/b2M [5] and with human FcRn/b2M [6] were 75 and 60, respectively.

B2: T026301051 (VHH, name in Kabat numbering)
VHH: EVQLVESGGGVVQPGGSLRLSCAASGFTFSSYDMYWVRQAPGKGLEWVSAISSGGGSTDYADSVKGRFTISRDNSKNTLYLQMNSLRPEDTALYYCAADTLYTDLTWYSYWGQGTLVTVSS
notes: tagless
The molecule B2 registered a koff in the test with human FcRn/b2M [7] of 0.012 s⁻¹.

B3: T026301071 (VHH, name in Kabat numbering)
VHH: EVQLVESGGGVVQPGGSLRLSCAASTFTFSEYAMYWVRQAPGKGLEWVSAISSGGGSTDYADSVKGRFTISRDNSKNTLYLQMNSLRPEDTALYYCAADTLYTDLTSYSYWGQGTLVTVSS
notes: tagless
In the test with human FcRn/b2M [7], B3 displayed a koff of 0.049 s⁻¹.

B4: T026301052 (VHH, name in Kabat numbering)
VHH: EVQLVESGGGVVQPGGSLRLSCAASTFTFSEYDMYWVRQAPGKGLEWVSAISSGGGSTDYADSVKGRFTISRDNSKNTLYLQMNSLRPEDTALYYCAADTLYTSLTWYSYWGQGTLVTVSS
notes: tagless
Regarding B4, the koff with human FcRn/b2M [7] was 0.0056 s⁻¹.

B5: T026301072 (VHH, name in Kabat numbering)
VHH: EVQLVESGGGVVQPGGSLRLSCAASGFTFSSYDMYWVRQAPGKGLEWVSAISQGGGSTDYADSVKGRFTISRDNSKNTLYLQMNSLRPEDTALYYCAADTLYTDLTSYSYWGQGTLVTVSS
notes: tagless
In the case of B5, the koff with human FcRn/b2M [7] was found to be 0.015 s⁻¹.

B6: T0263018B11 Y98F (VHH, name in Kabat numbering)
VHH: EVQLVESGGGVVQPGGSLRLSCAASGFTFSSYAMYWVRQAPGKGLEWVSAISSGGGSTDYADSVKGRFTISRDNSKNTLYLQMNSLRPEDTALYYCAADTLFTSLTWYSYWGQGTLVTVSS
notes: FLAG3-His6 tagged
On to B6, for which the koff with cyno FcRn/b2M [1] came to 0.022 s⁻¹; in the test with human FcRn/b2M [2], 0.04 s⁻¹; in the test with cyno FcRn/b2M [3], 0.00026 s⁻¹; with human FcRn/b2M [4], 0.00053 s⁻¹. The results for the “kd ratio pH 7.4/6.0” value with cyno FcRn/b2M [5] and with human FcRn/b2M [6] were 84 and 75, respectively.

B7: T0263018B11 Y100dF (VHH, name in Kabat numbering)
VHH: EVQLVESGGGVVQPGGSLRLSCAASGFTFSSYAMYWVRQAPGKGLEWVSAISSGGGSTDYADSVKGRFTISRDNSKNTLYLQMNSLRPEDTALYYCAADTLYTSLTWFSYWGQGTLVTVSS
notes: FLAG3-His6 tagged
Consider B7, for which the off-rate (koff) was found to be 0.057 s⁻¹ with cyno FcRn/b2M [1], 0.06 s⁻¹ in the test with human FcRn/b2M [2], 0.0017 s⁻¹ with cyno FcRn/b2M [3] and 0.0023 s⁻¹ with human FcRn/b2M [4]. The “kd ratio pH 7.4/6.0” value was found to be 34 in the test with cyno FcRn/b2M [5] and 26 with human FcRn/b2M [6].

B8: T026301067 (VHH, name in Kabat numbering)
VHH: EVQLVESGGGVVQPGGSLRLSCAASTFTFSSYDMYWVRQAPGKGLEWVSAISQGGGSTDYADSVKGRFTISRDNSKNTLYLQMNSLRPEDTALYYCAADTLYTSLTKYSYWGQGTLVTVSS
notes: tagless
B8: the koff with human FcRn/b2M [7] was found to be 0.0061 s⁻¹.

B9: T026301060 (VHH, name in Kabat numbering)
VHH: EVQLVESGGGVVQPGGSLRLSCAASGFTFSEYAMYWVRQAPGKGLEWVSAISSGGGSTDYADSVKGRFTISRDNSKNTLYLQMNSLRPEDTALYYCAADTLYTDLTSYSYWGQGTLVTVSS
notes: tagless
In the test with human FcRn/b2M [7], B9 showed a dissociation rate constant (koff) of 0.034 s⁻¹.

B10: T0263018B11 Y32T (VHH, name in Kabat numbering)
VHH: EVQLVESGGGVVQPGGSLRLSCAASGFTFSSTAMYWVRQAPGKGLEWVSAISSGGGSTDYADSVKGRFTISRDNSKNTLYLQMNSLRPEDTALYYCAADTLYTSLTWYSYWGQGTLVTVSS
notes: FLAG3-His6 tagged
Take B10: the koff with cyno FcRn/b2M [1] was determined as 0.21 s⁻¹; in the test with human FcRn/b2M [2], 0.19 s⁻¹; with cyno FcRn/b2M [3], 0.0035 s⁻¹; in the test with human FcRn/b2M [4] it was 0.0045 s⁻¹. Moreover, the “kd ratio pH 7.4/6.0” value in the test with cyno FcRn/b2M [5] was determined as 60; in the test with human FcRn/b2M [6], 42.

B11: T026301054 (VHH, name in Kabat numbering)
VHH: EVQLVESGGGVVQPGGSLRLSCAASTFTFSEYAMYWVRQAPGKGLEWVSAISQGGGSTDYADSVKGRFTISRDNSKNTLYLQMNSLRPEDTALYYCAADTLYTDLTWYSYWGQGTLVTVSS
notes: tagless
In the test with human FcRn/b2M [7], B11 registered a dissociation rate constant (koff) of 0.041 s⁻¹.

B12: T0263018B11 Y102T (VHH, name in Kabat numbering)
VHH: EVQLVESGGGVVQPGGSLRLSCAASGFTFSSYAMYWVRQAPGKGLEWVSAISSGGGSTDYADSVKGRFTISRDNSKNTLYLQMNSLRPEDTALYYCAADTLYTSLTWYSTWGQGTLVTVSS
notes: FLAG3-His6 tagged
In the case of B12, the koff stood at 0.06 s⁻¹ with cyno FcRn/b2M [1], 0.065 s⁻¹ with human FcRn/b2M [2], 0.0012 s⁻¹ in the test with cyno FcRn/b2M [3] and 0.0017 s⁻¹ in the test with human FcRn/b2M [4]. In addition, the “kd ratio pH 7.4/6.0” value with cyno FcRn/b2M [5] is 50; in the test with human FcRn/b2M [6], 38.

B13: T0263018B11 Y32S (VHH, name in Kabat numbering)
VHH: EVQLVESGGGVVQPGGSLRLSCAASGFTFSSSAMYWVRQAPGKGLEWVSAISSGGGSTDYADSVKGRFTISRDNSKNTLYLQMNSLRPEDTALYYCAADTLYTSLTWYSYWGQGTLVTVSS
notes: FLAG3-His6 tagged
For B13, the koff came out at 0.14 s⁻¹ with cyno FcRn/b2M [1], 0.19 s⁻¹ with human FcRn/b2M [2], 0.0028 s⁻¹ with cyno FcRn/b2M [3] and 0.0054 s⁻¹ in the test with human FcRn/b2M [4]. For the same molecule, the entries for the “kd ratio pH 7.4/6.0” value in the test with cyno FcRn/b2M [5] and in the test with human FcRn/b2M [6] were 52 and 35, respectively.

B14: T026301059 (VHH, name in Kabat numbering)
VHH: EVQLVESGGGVVQPGGSLRLSCAASGFTFSEYDMYWVRQAPGKGLEWVSAISQGGGSTDYADSVKGRFTISRDNSKNTLYLQMNSLRPEDTALYYCAADTLYTDLTSYSYWGQGTLVTVSS
notes: tagless
The molecule B14 displayed a koff in the test with human FcRn/b2M [7] of 0.039 s⁻¹.

B15: T0263018B11 Y32V (VHH, name in Kabat numbering)
VHH: EVQLVESGGGVVQPGGSLRLSCAASGFTFSSVAMYWVRQAPGKGLEWVSAISSGGGSTDYADSVKGRFTISRDNSKNTLYLQMNSLRPEDTALYYCAADTLYTSLTWYSYWGQGTLVTVSS
notes: FLAG3-His6 tagged
Regarding B15, the koff with cyno FcRn/b2M [1] came to 0.13 s⁻¹; with human FcRn/b2M [2] it was 0.048 s⁻¹; with cyno FcRn/b2M [3], 0.0022 s⁻¹; with human FcRn/b2M [4], 0.004 s⁻¹. Moreover, the “kd ratio pH 7.4/6.0” value amounted to 60 with cyno FcRn/b2M [5] and 12 in the test with human FcRn/b2M [6].

B16: T0263018B11 Y35F (VHH, name in Kabat numbering)
VHH: EVQLVESGGGVVQPGGSLRLSCAASGFTFSSYAMFWVRQAPGKGLEWVSAISSGGGSTDYADSVKGRFTISRDNSKNTLYLQMNSLRPEDTALYYCAADTLYTSLTWYSYWGQGTLVTVSS
notes: FLAG3-His6 tagged
In the case of B16, the koff with cyno FcRn/b2M [1] was 0.16 s⁻¹; with human FcRn/b2M [2] it was 0.14 s⁻¹; with cyno FcRn/b2M [3], 0.0035 s⁻¹; in the test with human FcRn/b2M [4], 0.0043 s⁻¹. Besides, the “kd ratio pH 7.4/6.0” value turned out to be 46 with cyno FcRn/b2M [5] and 33 with human FcRn/b2M [6].

B17: T026301050 (VHH, name in Kabat numbering)
VHH: EVQLVESGGGVVQPGGSLRLSCAASTFTFSSYAMYWVRQAPGKGLEWVSAISQGGGSTDYADSVKGRFTISRDNSKNTLYLQMNSLRPEDTALYYCAADTLYTDLTWYSYWGQGTLVTVSS
notes: tagless
In the test with human FcRn/b2M [7], B17 displayed a koff of 0.029 s⁻¹.

B18: T026301074 (VHH, name in Kabat numbering)
VHH: EVQLVESGGGVVQPGGSLRLSCAASTFTFSEYAMYWVRQAPGKGLEWVSAISSGGGSTDYADSVKGRFTISRDNSKNTLYLQMNSLRPEDTALYYCAADTLYTDLTWYSYWGQGTLVTVSS
notes: tagless
As to B18, the koff with human FcRn/b2M [7] was 0.013 s⁻¹.
